{"source": "patent US20240084276", "test_in_all_cases": "cell_activity", "key": {"[1]": {"tested_on": "T1, MIT 25-26x.48 (synthetic construct)", "T1 sequence": "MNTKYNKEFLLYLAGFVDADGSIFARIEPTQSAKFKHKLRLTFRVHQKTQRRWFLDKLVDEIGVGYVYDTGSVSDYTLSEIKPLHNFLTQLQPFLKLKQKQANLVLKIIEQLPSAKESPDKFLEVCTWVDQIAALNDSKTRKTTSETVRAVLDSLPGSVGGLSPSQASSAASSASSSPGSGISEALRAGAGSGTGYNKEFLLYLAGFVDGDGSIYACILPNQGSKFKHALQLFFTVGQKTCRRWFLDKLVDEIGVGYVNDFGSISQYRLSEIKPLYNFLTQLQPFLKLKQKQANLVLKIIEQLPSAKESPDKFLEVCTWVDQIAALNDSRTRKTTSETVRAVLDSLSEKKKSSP", "details": "500 ng mRNA, FlpIn CHO"}, "[2]": {"tested_on": "T2, MIT 25-26x.91 (synthetic construct)", "T2 sequence": "T1 sequence with A19S, E80Q, N259H, F261H, S263T, Y276H", "details": "500 ng mRNA, FlpIn CHO; 16% in repeat (FIG. 4)"}, "[3]": {"tested_on": "T3, MIT 25-26L.35 (synthetic construct)", "T3 sequence": "T1 sequence with H46W, T70E, D75S, N259Q, F261H, S263R, Y276H", "details": "500 ng mRNA, FlpIn CHO"}}, "note": "Changes are numbered by the printed parent chain."}
{"substance": "MIT 25-26 wild-type site (m.3243A)", "values": [{"measurement": "activity", "setting": "[1]", "result": 44, "unit": "% indels"}, {"measurement": "activity", "setting": "[2]", "result": 20, "unit": "% indels"}, {"measurement": "activity", "setting": "[3]", "result": 2, "unit": "% indels"}]}
